# Laboratory results: patent US20100298225A1, “PEPTIDE GAP JUNCTION MODULATORS” (published 2010)
# Key:
# [1] = target: T1, Recombinant Cx43CT (carboxyl terminal domain of connexin43, sequence 255-382 of rCx43 preceded by GPLG) (rat, UniProt P08050); assay: SPR, Cx43CT immobilised, peptide at 100 uM, response normalised on Mw
# From the text: (§1) Biophys. […] Commun. 8(4-6):225-229 (2001); Lang et al., “Surface Plasmon Resonance as a Method to Study the Kinetics and Amplitude of Protein-protein Binding,” in PRACTICAL METHODS IN CARDIOVASCULAR […] 936-947 (Stefan Dhein, Friedrich Wilhelm Mohr & Mario Delmar eds., 2005), which are hereby incorporated by reference in their entirety). Recombinant Cx43CT was covalently bound to a carboxylmethyl dextran matrix (Salamon et al., “Surface Plasmon Resonance Spectroscopy as a Tool for Investigating the Biochemical and Biophysical Properties of Membrane Protein Systems. II: Applications to Biological Systems,” Biochim. Biophys. Acta 1331(2):131-152 (1997), which is hereby incorporated by reference in its entirety). Specific peptides were presented and, when feasible, dissociation constants (KD) were calculated from the time course of binding and unbinding of the ligand, using a 1:1 (Langmuir) association and dissociation kinetic model (Biacore software package). In both phases (association and dissociation), the first 5-8 seconds of recording were not included in the fit, to avoid artifacts resulting from peptide distribution within the flow cells (Lang et al., “Surface Plasmon Resonance as a Method to Study the Kinetics and Amplitude of Protein-protein Binding,” in PRACTICAL METHODS IN CARDIOVASCULAR […] 936-947 (Stefan Dhein, Friedrich Wilhelm Mohr & Mario Delmar eds., 2005), which is hereby incorporated by reference in its entirety).
# (§2) The peptides shown in table 2 and 3 were tested for binding to the carboxyl terminal domain (CT) of Cx43 using Surface Plasmon Resonance (“SPR”). SPR is a method that was used to identify the original RXPE sequence (Shibayama et al., “Identification of a Novel Peptide that Interferes with the Chemical Regulation of Connexin-43,” Circ. Res. 98:1365-72 (2006)). The amplitude of the response is also a function of the mass of the ligate, and the normalized data according to the individual peptide Mw's are shown in table 3.
# [2] = target: T1, Recombinant Cx43CT (carboxyl terminal …); assay: SPR, Cx43CT immobilised, peptide at 1 mM, response normalised on Mw
# From the text: as §1, §2
# [3] = target: T1, Recombinant Cx43CT (carboxyl terminal …); assay: SPR, Cx43CT immobilised, peptide at 25 uM
# Experimental: (§3) Recombinant Cx43CT was covalently bound to a carboxylmethyl dextran matrix (Salamon et al., “Surface Plasmon Resonance Spectroscopy as a Tool for Investigating the Biochemical and Biophysical Properties of Membrane Protein Systems. II: Applications to Biological Systems,” Biochim. Biophys. Acta 1331(2):131-152 (1997), which is hereby incorporated by reference in its entirety). Specific peptides were presented and, when feasible, dissociation constants (KD) were calculated from the time course of binding and unbinding of the ligand, using a 1:1 (Langmuir) association and dissociation kinetic model (Biacore software package). In both phases (association and dissociation), the first 5-8 seconds of recording were not included in the fit, to avoid artifacts resulting from peptide distribution within the flow cells (Lang et al., “Surface Plasmon Resonance as a Method to Study the Kinetics and Amplitude of Protein-protein Binding,” in PRACTICAL METHODS IN CARDIOVASCULAR […] 936-947 (Stefan Dhein, Friedrich Wilhelm Mohr & Mario Delmar eds., 2005), which is hereby incorporated by reference in its entirety).
# (§4) The peptides shown in table 2 and 3 were tested for binding to the carboxyl terminal domain (CT) of Cx43 using Surface Plasmon Resonance (“SPR”). SPR is a method that was used to identify the original RXPE sequence (Shibayama et al., “Identification of a Novel Peptide that Interferes with the Chemical Regulation of Connexin-43,” Circ. Res. 98:1365-72 (2006)).
# [4] = target: T1, Recombinant Cx43CT (carboxyl terminal …); assay: SPR, Cx43CT immobilised, peptide at 500 uM, response normalised on Mw
# From the text: as §1, §2
# [5] = target: T1, Recombinant Cx43CT (carboxyl terminal …); assay: SPR, Cx43CT immobilised, peptide at 1 mM
# Experimental: as §3, §4
# [6] = target: T1, Recombinant Cx43CT (carboxyl terminal …); assay: SPR, Cx43CT immobilised, peptide at 250 uM, response normalised on Mw
# From the text: as §1, §2
# [7] = target: T1, Recombinant Cx43CT (carboxyl terminal …); assay: SPR, Cx43CT immobilised, peptide at 250 uM
# Experimental: as §3, §4
# [8] = target: T1, Recombinant Cx43CT (carboxyl terminal …); assay: SPR, Cx43CT immobilised, peptide at 25 uM, response normalised on Mw
# From the text: as §1, §2
# [9] = target: T1, Recombinant Cx43CT (carboxyl terminal …); assay: SPR, Cx43CT immobilised, peptide at 500 uM
# Experimental: as §3, §4
# [10] = target: T1, Recombinant Cx43CT (carboxyl terminal …); assay: SPR, Cx43CT immobilised, peptide at 100 uM
# Experimental: as §3, §4
# T1 sequence (P08050 other isoform, or with tags, fused parts or gaps limits assumed): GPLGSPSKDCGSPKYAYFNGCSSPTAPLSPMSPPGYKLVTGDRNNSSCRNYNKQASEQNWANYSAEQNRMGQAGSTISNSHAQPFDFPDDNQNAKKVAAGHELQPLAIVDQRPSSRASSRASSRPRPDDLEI
Binder,SPR normalised on Mw at 100 uM [1],SPR normalised on Mw at 1 mM [2],SPR respons at 25 uM [3],SPR normalised on Mw at 500 uM [4],SPR respons at 1 mM [5],SPR normalised on Mw at 250 uM [6],SPR respons at 250 uM [7],SPR normalised on Mw at 25 uM [8],SPR respons at 500 uM [9],SPR respons at 100 uM [10]
Ac-RRNYGGGSAVPFYRRNY-NH2 [Compound 2508],5.9 (SPRrespons*100)/Mw,49.4 (SPRrespons*100)/Mw,31.1 arbitrary units,26.4 (SPRrespons*100)/Mw,1020 arbitrary units,13.7 (SPRrespons*100)/Mw,285 arbitrary units,1.5 (SPRrespons*100)/Mw,547 arbitrary units,122 arbitrary units
Ac-RRNYAVPFRRNY-NH2 [Compound 2511],5.5 (SPRrespons*100)/Mw,41.9 (SPRrespons*100)/Mw,16.2 arbitrary units,23.6 (SPRrespons*100)/Mw,692 arbitrary units,13 (SPRrespons*100)/Mw,214 arbitrary units,1 (SPRrespons*100)/Mw,390 arbitrary units,90.5 arbitrary units
Ac-RRNYGGGRRNY-NH2 [Compound 2509],4.4 (SPRrespons*100)/Mw,34 (SPRrespons*100)/Mw,21.5 arbitrary units,19.9 (SPRrespons*100)/Mw,479 arbitrary units,10.5 (SPRrespons*100)/Mw,148 arbitrary units,1.5 (SPRrespons*100)/Mw,281 arbitrary units,62.5 arbitrary units
Ac-RRNY-NH2 [Compound 2498],–,14 (SPRrespons*100)/Mw,–,7.9 (SPRrespons*100)/Mw,91 arbitrary units,–,–,–,50.9 arbitrary units,–
Ac-YNRR-NH2 [Compound 2499],–,10.7 (SPRrespons*100)/Mw,–,–,69.4 arbitrary units,–,–,–,–,–
Ac-RRNYSHSRRNY-NH2 [Compound 2507],7.3 (SPRrespons*100)/Mw,45.4 (SPRrespons*100)/Mw,42.3 arbitrary units,28.3 (SPRrespons*100)/Mw,703 arbitrary units,16.4 (SPRrespons*100)/Mw,254 arbitrary units,2.7 (SPRrespons*100)/Mw,438 arbitrary units,114 arbitrary units
Ac-RRNYRRNY-NH2 [Compound 2497],6.8 (SPRrespons*100)/Mw,45.7 (SPRrespons*100)/Mw,30.2 arbitrary units,26.5 (SPRrespons*100)/Mw,565 arbitrary units,16.3 (SPRrespons*100)/Mw,202 arbitrary units,2.4 (SPRrespons*100)/Mw,328 arbitrary units,84.2 arbitrary units
Ac-RRNYGGSAVPFYSHRRNY-NH2 [Compound 2510],7.9 (SPRrespons*100)/Mw,53 (SPRrespons*100)/Mw,40.3 arbitrary units,28.7 (SPRrespons*100)/Mw,1190 arbitrary units,14.8 (SPRrespons*100)/Mw,332 arbitrary units,1.8 (SPRrespons*100)/Mw,643 arbitrary units,176 arbitrary units
Ac-RRNYSAVPFYSHSRRNY-NH2 [Compound 2506],5.3 (SPRrespons*100)/Mw,53 (SPRrespons*100)/Mw,51.7 arbitrary units,25.4 (SPRrespons*100)/Mw,1170 arbitrary units,14.8 (SPRrespons*100)/Mw,327 arbitrary units,2.3 (SPRrespons*100)/Mw,562 arbitrary units,117 arbitrary units
Ac-RRNYVPRRNY-NH2 [Compound 2512],3.5 (SPRrespons*100)/Mw,27.5 (SPRrespons*100)/Mw,14.8 arbitrary units,15.9 (SPRrespons*100)/Mw,395 arbitrary units,8.2 (SPRrespons*100)/Mw,117 arbitrary units,1 (SPRrespons*100)/Mw,227 arbitrary units,50.7 arbitrary units
Ac-YNRRGGGSAVPFYSHSYNRR-NH2 [Compound 2496],6.5 (SPRrespons*100)/Mw,58.8 (SPRrespons*100)/Mw,67.7 arbitrary units,31 (SPRrespons*100)/Mw,1400 arbitrary units,15 (SPRrespons*100)/Mw,358 arbitrary units,2.8 (SPRrespons*100)/Mw,739 arbitrary units,156 arbitrary units
